The target in experiment [1] is TNFR2 variant in which the intracellular binding site for TRAF2 has been substituted by YFP, P20333. In words: cellular binding study with GpL (luciferase) fusion protein; competition; HEK293 cells transiently expressing TNFR1 or TNFR2 (YFP deletion mutants); preincubation with purified sTNF or PGRN at 37°C; 10-20 ng/ml GpL-TNF; EV-transfected cells as non-specific binding.

Experiment [2] concerns the target cytosolic deletion mutant of TNFR1 in which the death domain has been replaced by YFP, P19438. The description is as above.

A value given as a limit tells only on which side of the number the result lay.

B1: GpL-Flag-TNC-TNF (ligand)
chain: ACGCAAAPDIKDLLSRLEELEGLVSSLREQSDKPVAHVVANPQAEGQLQWLNRRANALLANGVELRDNQLVVPSEGLYLIYSQVLFKGQGCPSTHVLLTHTISRIAVSYQTKVNLLSAIKSPCQRETPEGAEAKPWYEPIYLGGVFQLEKGDRLSAEINRPDYLDFAESGQVYFGIIAL
B1: the specific binding of 20 ng/ml GpL-TNF, fold over the unspecific background (the pair that is blocked) in experiment [1] was over 2400 fold; in experiment [2], over 800 fold.

The record behind these values is article PMC5925078.
